Measured values from patent publication US20090192048A1, “METHOD OF PRODUCING A […] AGENT FOR BINDING A LIGAND” (priority 2005, published 2009).
Ends that are not written are not given here.

Assay: Retention of peptides 2DOS-1 to 2DOS-16 on a hydrophobic surface (polypropylene microtitre plate wells), water wash
Type: physicochemical
Conditions: 400V scan; 100 μl of 10 μM peptide before drying and washing
Description: The retention of peptides 2DOS-1 to 2DOS-16 on a hydrophobic surface (the wells of a polypropylene microtitre plate) was then investigated.
(§1) 10 mM tris-HCl (pH 8.0) in 50% (v/v) aqueous acetonitrile was used as the solvent for the peptides and for TAMRA.
100 μl aliquots of 10 μM peptides 2DOS-1 to 2DOS-16 and 10 μM TAMRA were placed in the wells of a Costar microtitre plate as shown in FIG. 13:
(§2) The microtitre plate was imaged at 200 μm resolution on a Typhoon Trio Plus variable mode imager (Amersham Biosciences) with the green (532 nm) laser and the 580 BP 30 filter at the PMT voltages indicated below and at normal sensitivity. The scan height was set at +3 mm and the sample was pressed during scanning.
The peptides were allowed to evaporate to dryness overnight in the dark and the microtitre plate was again scanned as described above.
The wells were then washed ten times with 250 μl of water.
The residual surface-bound peptides were finally resuspended in 100 μl of 10 mM tris-HCl (pH 8.0) in 50% (v/v) aqueous acetonitrile and the microtitre plate was again scanned as described above.
(§3) The fluorescence images were analysed using ImageQuant TL v2003.03 (Amersham Biosciences).
Quantification data (using the data from the 400V scan) is given in Table 2 and shown graphically in FIG. 15.

| Substance | Initial fluorescence (×10^3) |
| --- | --- |
| N-TAMPA-Asp-Asp- Ala-Asp-Ser-Asp- Lys-C ({TAMRA}-DDADSDK) [Peptide 2DOS-8] | 33,615 ×10^3 |
| N-TAMRA-Asp-Ser- Asp-Ser-Asp-Ser- Asp-C ({TAMRA}-DSDSDSD) [Peptide 2DOS-15] | 30,845 ×10^3 |

Same assay, conditions: 400V scan; dried, washed ten times with 250 μl water, resuspended

| Substance | Recovered fluorescence (×10^3) |
| --- | --- |
| N-TAMPA-Asp-Asp- Ala-Asp-Ser-Asp- Lys-C ({TAMRA}-DDADSDK) [Peptide 2DOS-8] | 3 ×10^3 |
| N-TAMRA-Asp-Ser- Asp-Ser-Asp-Ser- Asp-C ({TAMRA}-DSDSDSD) [Peptide 2DOS-15] | 2 ×10^3 |

Assay: Retention of peptides on Greiner polystyrene V-bottom wells
Type: physicochemical
Conditions: 400V scan
Description: (§4) The retention of peptides 2DOS-1 to 2DOS-16 (see above) on polypropylene and polystyrene surfaces was compared:
(§5) 5 mM tris-HCl (pH 8.0) in 75% (v/v) aqueous acetonitrile was used as the solvent for the peptides and for TAMRA.
(§6) 20 μl aliquots of 5 μM peptides 2DOS-1 to 2DOS-16 and 5 μM TAMRA were pipetted into the wells of a Costar V-bottomed polypropylene microtitre plate, a Greiner V-bottomed polypropylene microtitre plate, and a Greiner V-bottomed polystyrene microtitre plate according to the scheme shown in FIG. 26:
(§7) The peptide samples were allowed to evaporate to dryness in the dark.
(§8) The peptide samples in the top two rows of the microtitre plates were then incubated for 15 minutes at room temperature in 250 μl of 1 M NaCl in 10 mM tris-HCl (pH 8.0).
(§9) After incubation, the wash buffer was pipetted up and down eight times in the well before removing the supernatant.
(§10) The washed and untreated peptide samples were then resuspended in 50 μl of 10 mM tris-HCl (pH 8.0) in 50% (v/v) aqueous acetonitrile.
as §2, with “plates were” for “plate was”
as §3

| Substance | Percent retention [%] |
| --- | --- |
| N-TAMPA-Asp-Asp- Ala-Asp-Ser-Asp- Lys-C ({TAMRA}-DDADSDK) [Peptide 2DOS-8] | 1 |
| N-TAMRA-Asp-Ser- Asp-Ser-Asp-Ser- Asp-C ({TAMRA}-DSDSDSD) [Peptide 2DOS-15] | 1 |

Same assay, conditions: 400V scan, unwashed

| Substance | Untreated fluorescence |
| --- | --- |
| N-TAMPA-Asp-Asp- Ala-Asp-Ser-Asp- Lys-C ({TAMRA}-DDADSDK) [Peptide 2DOS-8] | 842,984 |
| N-TAMRA-Asp-Ser- Asp-Ser-Asp-Ser- Asp-C ({TAMRA}-DSDSDSD) [Peptide 2DOS-15] | 868,334 |

Same assay, conditions: 400V scan, washed 15 minutes in 1 M NaCl in 10 mM tris-HCl (pH 8.0)

| Substance | Retained fluorescence |
| --- | --- |
| N-TAMPA-Asp-Asp- Ala-Asp-Ser-Asp- Lys-C ({TAMRA}-DDADSDK) [Peptide 2DOS-8] | 5,071 |
| N-TAMRA-Asp-Ser- Asp-Ser-Asp-Ser- Asp-C ({TAMRA}-DSDSDSD) [Peptide 2DOS-15] | 5,116 |

Assay: Retention of peptides in V-bottomed polypropylene wells
Type: physicochemical
Conditions: V-bottom wells; 500V scan
Description: (§11) The retention of peptides 2DOS-1 to 2DOS-16 (see above) on polypropylene wells of different geometries was investigated:
as §1
(§12) 1 μl aliquots of 10 μM peptides 2DOS-1 to 2DOS-16 and 10 μM TAMRA were pipetted into the wells of a Costar V-bottomed polypropylene microtitre plate and a Greiner flat-bottomed polypropylene microtitre plate according to the following scheme as shown in FIG. 22:
as §7
(§13) The peptide samples in the top two rows of the microtitre plates were then incubated for 15′ minutes at room temperature in 250 μl of 1 M NaCl in 10 mM tris-HCl (pH 8.0).
as §9, §10
as §2, with “plates were” for “plate was”, “the platen” for “+3 mm”, “during,” for “during”
as §3

| Substance | Percent retention [%] |
| --- | --- |
| N-TAMPA-Asp-Asp- Ala-Asp-Ser-Asp- Lys-C ({TAMRA}-DDADSDK) [Peptide 2DOS-8] | 2 |
| N-TAMRA-Asp-Ser- Asp-Ser-Asp-Ser- Asp-C ({TAMRA}-DSDSDSD) [Peptide 2DOS-15] | 1 |

Same assay, conditions: V-bottom wells; 500V scan; unwashed

| Substance | Untreated fluorescence |
| --- | --- |
| N-TAMPA-Asp-Asp- Ala-Asp-Ser-Asp- Lys-C ({TAMRA}-DDADSDK) [Peptide 2DOS-8] | 10,130,734 |
| N-TAMRA-Asp-Ser- Asp-Ser-Asp-Ser- Asp-C ({TAMRA}-DSDSDSD) [Peptide 2DOS-15] | 10,493,100 |

Same assay, conditions: V-bottom wells; 500V scan; washed 15 minutes in 1 M NaCl in 10 mM tris-HCl (pH 8.0)

| Substance | Retained fluorescence |
| --- | --- |
| N-TAMPA-Asp-Asp- Ala-Asp-Ser-Asp- Lys-C ({TAMRA}-DDADSDK) [Peptide 2DOS-8] | 202,943 |
| N-TAMRA-Asp-Ser- Asp-Ser-Asp-Ser- Asp-C ({TAMRA}-DSDSDSD) [Peptide 2DOS-15] | 122,851 |

Assay: Retention of peptides on Costar polypropylene V-bottom wells
Type: physicochemical
Conditions: 400V scan
Description: as §4, §5, §6, §7, §8, §9, §10
as §2, with “plates were” for “plate was”
as §3

| Substance | Percent retention [%] |
| --- | --- |
| N-TAMPA-Asp-Asp- Ala-Asp-Ser-Asp- Lys-C ({TAMRA}-DDADSDK) [Peptide 2DOS-8] | 1 |
| N-TAMRA-Asp-Ser- Asp-Ser-Asp-Ser- Asp-C ({TAMRA}-DSDSDSD) [Peptide 2DOS-15] | 1 |

Same assay, conditions: 400V scan, unwashed

| Substance | Untreated fluorescence |
| --- | --- |
| N-TAMPA-Asp-Asp- Ala-Asp-Ser-Asp- Lys-C ({TAMRA}-DDADSDK) [Peptide 2DOS-8] | 6,587,741 |
| N-TAMRA-Asp-Ser- Asp-Ser-Asp-Ser- Asp-C ({TAMRA}-DSDSDSD) [Peptide 2DOS-15] | 6,488,130 |

Same assay, conditions: 400V scan, washed 15 minutes in 1 M NaCl in 10 mM tris-HCl (pH 8.0)

| Substance | Retained fluorescence |
| --- | --- |
| N-TAMPA-Asp-Asp- Ala-Asp-Ser-Asp- Lys-C ({TAMRA}-DDADSDK) [Peptide 2DOS-8] | 93,455 |
| N-TAMRA-Asp-Ser- Asp-Ser-Asp-Ser- Asp-C ({TAMRA}-DSDSDSD) [Peptide 2DOS-15] | 50,584 |

Assay: Retention of peptides in flat-bottomed polypropylene wells
Type: physicochemical
Conditions: flat-bottom wells; 500V scan
Description: as §11, §1, §12, §7, §13, §9, §10
as §2, with “plates were” for “plate was”, “the platen” for “+3 mm”, “during,” for “during”
as §3

| Substance | Percent retention [%] |
| --- | --- |
| N-TAMPA-Asp-Asp- Ala-Asp-Ser-Asp- Lys-C ({TAMRA}-DDADSDK) [Peptide 2DOS-8] | 4 |
| N-TAMRA-Asp-Ser- Asp-Ser-Asp-Ser- Asp-C ({TAMRA}-DSDSDSD) [Peptide 2DOS-15] | 1 |

Same assay, conditions: flat-bottom wells; 500V scan; unwashed

| Substance | Untreated fluorescence |
| --- | --- |
| N-TAMPA-Asp-Asp- Ala-Asp-Ser-Asp- Lys-C ({TAMRA}-DDADSDK) [Peptide 2DOS-8] | 17,576,485 |
| N-TAMRA-Asp-Ser- Asp-Ser-Asp-Ser- Asp-C ({TAMRA}-DSDSDSD) [Peptide 2DOS-15] | 15,290,885 |

Same assay, conditions: flat-bottom wells; 500V scan; washed 15 minutes in 1 M NaCl in 10 mM tris-HCl (pH 8.0)

| Substance | Retained fluorescence |
| --- | --- |
| N-TAMPA-Asp-Asp- Ala-Asp-Ser-Asp- Lys-C ({TAMRA}-DDADSDK) [Peptide 2DOS-8] | 637,350 |
| N-TAMRA-Asp-Ser- Asp-Ser-Asp-Ser- Asp-C ({TAMRA}-DSDSDSD) [Peptide 2DOS-15] | 104,523 |

Assay: Retention of peptides on Greiner polypropylene V-bottom wells
Type: physicochemical
Conditions: 400V scan
Description: as §4, §5, §6, §7, §8, §9, §10
as §2, with “plates were” for “plate was”
as §3

| Substance | Percent retention [%] |
| --- | --- |
| N-TAMPA-Asp-Asp- Ala-Asp-Ser-Asp- Lys-C ({TAMRA}-DDADSDK) [Peptide 2DOS-8] | 2 |
| N-TAMRA-Asp-Ser- Asp-Ser-Asp-Ser- Asp-C ({TAMRA}-DSDSDSD) [Peptide 2DOS-15] | 1 |

Same assay, conditions: 400V scan, unwashed

| Substance | Untreated fluorescence |
| --- | --- |
| N-TAMPA-Asp-Asp- Ala-Asp-Ser-Asp- Lys-C ({TAMRA}-DDADSDK) [Peptide 2DOS-8] | 3,903,470 |
| N-TAMRA-Asp-Ser- Asp-Ser-Asp-Ser- Asp-C ({TAMRA}-DSDSDSD) [Peptide 2DOS-15] | 4,771,265 |

Same assay, conditions: 400V scan, washed 15 minutes in 1 M NaCl in 10 mM tris-HCl (pH 8.0)

| Substance | Retained fluorescence |
| --- | --- |
| N-TAMPA-Asp-Asp- Ala-Asp-Ser-Asp- Lys-C ({TAMRA}-DDADSDK) [Peptide 2DOS-8] | 80,770 |
| N-TAMRA-Asp-Ser- Asp-Ser-Asp-Ser- Asp-C ({TAMRA}-DSDSDSD) [Peptide 2DOS-15] | 65,142 |
